In patent US20050019306:

Target: p48-VP16 TAD (Homo sapiens / Herpes simplex virus) (UniProt Q00978)
Experiment: cell_activity
Settings: 293T ISRE-Luc reporter

UniProt Q00978, sequence (Q00978 1-393, tags or fused parts left off): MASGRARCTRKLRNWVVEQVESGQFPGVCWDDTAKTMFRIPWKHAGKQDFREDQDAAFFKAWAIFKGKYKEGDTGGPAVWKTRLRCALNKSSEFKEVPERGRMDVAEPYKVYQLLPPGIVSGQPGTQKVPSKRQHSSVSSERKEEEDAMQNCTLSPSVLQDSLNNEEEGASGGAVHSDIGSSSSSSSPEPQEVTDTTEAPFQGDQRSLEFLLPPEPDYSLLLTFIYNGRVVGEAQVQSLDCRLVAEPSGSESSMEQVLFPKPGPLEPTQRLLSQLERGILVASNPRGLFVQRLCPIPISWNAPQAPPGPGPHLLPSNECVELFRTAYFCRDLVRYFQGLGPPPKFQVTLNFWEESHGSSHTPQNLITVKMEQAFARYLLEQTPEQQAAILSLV

**Q.** For 5x ISG54 ISRE luciferase reporter, which activity (fold relative to p48-S2C) is on record?
**A.** 3
